Experiments:
Test in all cases: pulldown
rbm38 (Danio rerio) = molecular target: T1, rbm38 (Danio rerio) (UniProt A0A8M1NF18); details: 20 nM protein, 1.5 uM RNA pool; 20 mM HEPES pH 7.8, 70 mM KCl, 10 mM NaCl, 10% glycerol, 2 mM DTT, 0.1 ug/uL BSA; 30 min, 4 C (protocol of this paper; not …); cited from earlier work
T1 sequence: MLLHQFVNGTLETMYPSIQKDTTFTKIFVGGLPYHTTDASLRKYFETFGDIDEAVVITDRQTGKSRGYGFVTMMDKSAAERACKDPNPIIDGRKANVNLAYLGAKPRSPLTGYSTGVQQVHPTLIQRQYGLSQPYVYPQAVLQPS

[1] = molecular target: T2, AT1G76460 (Arabidopsis thaliana) (UniProt F4I2E4); details: 20 nM protein, 1.5 uM RNA pool; 20 mM HEPES pH 7.8, 70 mM KCl, 10 mM NaCl, 10% glycerol, 2 mM DTT, 0.1 ug/uL BSA; 30 min, 4 C (protocol of this paper; not …); cited from earlier work
T2 sequence: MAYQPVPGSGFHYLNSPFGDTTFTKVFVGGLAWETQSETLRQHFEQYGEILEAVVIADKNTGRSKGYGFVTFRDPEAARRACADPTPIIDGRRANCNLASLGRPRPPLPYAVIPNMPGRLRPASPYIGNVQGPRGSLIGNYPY

A1CF (Gallus gallus) = molecular target: T3, A1CF (Gallus gallus) (UniProt A0A8V0ZPX5); details: 20 nM protein, 1.5 uM RNA pool; 20 mM HEPES pH 7.8, 70 mM KCl, 10 mM NaCl, 10% glycerol, 2 mM DTT, 0.1 ug/uL BSA; 30 min, 4 C (protocol of this paper; not …); cited from earlier work
T3 sequence: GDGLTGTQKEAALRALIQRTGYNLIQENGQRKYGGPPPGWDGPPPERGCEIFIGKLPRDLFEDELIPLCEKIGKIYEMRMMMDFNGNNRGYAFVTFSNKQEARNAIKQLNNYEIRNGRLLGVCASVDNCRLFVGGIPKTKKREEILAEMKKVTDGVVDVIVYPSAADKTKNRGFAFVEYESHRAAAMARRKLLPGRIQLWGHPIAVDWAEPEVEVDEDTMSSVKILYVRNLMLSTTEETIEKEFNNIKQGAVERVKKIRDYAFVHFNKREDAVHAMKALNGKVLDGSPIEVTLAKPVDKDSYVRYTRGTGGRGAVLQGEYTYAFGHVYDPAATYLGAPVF

[2] = molecular target: T4, PK03611.1 N266D (Cannabis sativa) (UniProt A0A7J6FG33); details: 20 nM protein, 1.5 uM RNA pool; 20 mM HEPES pH 7.8, 70 mM KCl, 10 mM NaCl, 10% glycerol, 2 mM DTT, 0.1 ug/uL BSA; 30 min, 4 C
T4 sequence: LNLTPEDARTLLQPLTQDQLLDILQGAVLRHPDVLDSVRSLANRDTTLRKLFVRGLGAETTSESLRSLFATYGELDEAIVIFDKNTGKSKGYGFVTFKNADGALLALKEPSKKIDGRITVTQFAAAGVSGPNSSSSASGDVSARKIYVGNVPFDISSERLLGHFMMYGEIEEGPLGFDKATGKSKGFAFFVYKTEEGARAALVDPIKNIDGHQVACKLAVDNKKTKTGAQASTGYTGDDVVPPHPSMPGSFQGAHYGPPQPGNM

hnrnpa0l (Danio rerio) = hnrnpa0l (Danio rerio) (UniProt A0ACM8Q088); details: 20 nM protein, 1.5 uM RNA pool; 20 mM HEPES pH 7.8, 70 mM KCl, 10 mM NaCl, 10% glycerol, 2 mM DTT, 0.1 ug/uL BSA; 30 min, 4 C
[3] = molecular target: T5, rnp-2 (Caenorhabditis elegans) (UniProt Q21322); details: 20 nM protein, 1.5 uM RNA pool; 20 mM HEPES pH 7.8, 70 mM KCl, 10 mM NaCl, 10% glycerol, 2 mM DTT, 0.1 ug/uL BSA; 30 min, 4 C
T5 sequence: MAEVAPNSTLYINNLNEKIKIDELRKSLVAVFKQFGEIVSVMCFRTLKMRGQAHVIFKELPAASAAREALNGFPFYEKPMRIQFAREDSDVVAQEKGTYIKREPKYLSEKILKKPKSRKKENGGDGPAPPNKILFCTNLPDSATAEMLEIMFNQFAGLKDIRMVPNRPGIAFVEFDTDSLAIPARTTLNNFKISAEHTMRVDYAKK

[4] = molecular target: T6, PK22404.1 A169L;A170F;T171A;T450P (Cannabis sativa) (UniProt A0A803PFA7); details: 20 nM protein, 1.5 uM RNA pool; 20 mM HEPES pH 7.8, 70 mM KCl, 10 mM NaCl, 10% glycerol, 2 mM DTT, 0.1 ug/uL BSA; 30 min, 4 C
T6 sequence: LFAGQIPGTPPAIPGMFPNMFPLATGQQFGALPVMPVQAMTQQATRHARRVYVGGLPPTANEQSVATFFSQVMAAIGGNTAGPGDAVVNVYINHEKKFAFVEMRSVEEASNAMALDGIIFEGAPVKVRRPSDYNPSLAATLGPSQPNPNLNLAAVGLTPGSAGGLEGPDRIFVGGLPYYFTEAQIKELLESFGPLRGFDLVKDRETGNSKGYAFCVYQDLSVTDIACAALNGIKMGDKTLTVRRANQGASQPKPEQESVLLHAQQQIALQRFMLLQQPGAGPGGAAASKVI

G3BP2 (Homo sapiens) = molecular target: T7, G3BP2 (Homo sapiens) (UniProt Q9UN86); details: 20 nM protein, 1.5 uM RNA pool; 20 mM HEPES pH 7.8, 70 mM KCl, 10 mM NaCl, 10% glycerol, 2 mM DTT, 0.1 ug/uL BSA; 30 min, 4 C (protocol of this paper; not …); cited from earlier work
T7 sequence: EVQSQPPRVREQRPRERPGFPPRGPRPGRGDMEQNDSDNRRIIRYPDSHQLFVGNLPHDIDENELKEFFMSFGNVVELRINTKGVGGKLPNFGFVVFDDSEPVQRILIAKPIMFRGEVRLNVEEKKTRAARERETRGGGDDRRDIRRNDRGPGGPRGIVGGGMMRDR

HNRNPA1 (Homo sapiens) = HNRNPA1 (Homo sapiens) (UniProt P09651); details: 20 nM protein, 1.5 uM RNA pool; 20 mM HEPES pH 7.8, 70 mM KCl, 10 mM NaCl, 10% glycerol, 2 mM DTT, 0.1 ug/uL BSA; 30 min, 4 C (protocol of this paper; not …); cited from earlier work
Sequence of HNRNPA1 (Homo sapiens) (P09651 1-226): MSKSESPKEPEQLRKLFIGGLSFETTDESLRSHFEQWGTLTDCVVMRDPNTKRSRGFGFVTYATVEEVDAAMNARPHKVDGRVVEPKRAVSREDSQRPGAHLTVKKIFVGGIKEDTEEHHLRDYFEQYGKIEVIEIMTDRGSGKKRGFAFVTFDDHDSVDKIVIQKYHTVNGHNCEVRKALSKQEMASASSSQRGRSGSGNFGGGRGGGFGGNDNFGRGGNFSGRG

Sequence of hnrnpa0l (Danio rerio) (A0ACM8Q088 entry or part of it): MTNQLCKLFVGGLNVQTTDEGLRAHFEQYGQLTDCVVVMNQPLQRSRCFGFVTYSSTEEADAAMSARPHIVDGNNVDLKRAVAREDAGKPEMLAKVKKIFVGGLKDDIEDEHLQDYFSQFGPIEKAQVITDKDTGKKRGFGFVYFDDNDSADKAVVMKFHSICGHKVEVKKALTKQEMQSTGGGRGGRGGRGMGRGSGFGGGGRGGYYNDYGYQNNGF

Q: With GUGUGUG [RNAcompete motif RNCMPT00283] as the substance, how does the binding signal (z-score (mean of top ten 7-mers)) (rbm38 (Danio rerio)) read?
A: Its binding signal (z-score (mean of top ten 7-mers)) is 9.92.

Q: With AGUGUGA [RNAcompete motif RNCMPT00284] as the substance, how does the binding signal (z-score (mean of top ten 7-mers)) [1] read?
A: The binding signal (z-score (mean of top ten 7-mers)) was 8.11.

Q: With UAAUUG [RNAcompete motif RNCMPT00291] as the substance, how does the binding signal (z-score (mean of top ten 7-mers)) (A1CF (Gallus gallus)) read?
A: Its binding signal (z-score (mean of top ten 7-mers)) is 12.

Q: With UUAUGUG [RNAcompete motif RNCMPT00326] as the substance, how does the binding signal (z-score (mean of top ten 7-mers)) [2] read?
A: Its binding signal (z-score (mean of top ten 7-mers)) is 8.16.

Q: For AUAGGA [RNAcompete motif RNCMPT00340], which binding signal (z-score (mean of top ten 7-mers)) (hnrnpa0l (Danio rerio)) is on record?
A: Its binding signal (z-score (mean of top ten 7-mers)) is 10.9.

Q: With GCACUU [RNAcompete motif RNCMPT00301] as the substance, how does the binding signal (z-score (mean of top ten 7-mers)) [3] read?
A: The binding signal (z-score (mean of top ten 7-mers)) was 27.

Q: With UUUUUUG [RNAcompete motif RNCMPT00343] as the substance, how does the binding signal (z-score (mean of top ten 7-mers)) [4] read?
A: Its binding signal (z-score (mean of top ten 7-mers)) is 13.5.

Q: With AGGAUNA [RNAcompete motif RNCMPT00021] as the substance, how does the binding signal (z-score (mean of top ten 7-mers)) (G3BP2 (Homo sapiens)) read?
A: Its binding signal (z-score (mean of top ten 7-mers)) is 8.75.

Q: With UAGGGA [RNAcompete motif RNCMPT00022] as the substance, how does the binding signal (z-score (mean of top ten 7-mers)) (HNRNPA1 (Homo sapiens)) read?
A: The binding signal (z-score (mean of top ten 7-mers)) was 10.

— article PMC12990809
